Data reported in patent US20260242735A1 (UNIVERSIT T BASEL, published 2026).

Columns and labels:
Experiment in all cases: alanine scan, flow cytometry, HEK293-T;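 further: antibody binding to each alanine-substituted CD33 mutant expressed transiently in HEK293-T, read as fluorescence minus background, mean of duplicates, relative to wild-type CD33 set as 100%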
human CD33 L180A = human CD33 L180A (human, UniProt P20138 18-364)
human CD33 S181A = human CD33 S181A (human, UniProt P20138 18-364)
human CD33 T239A = human CD33 T239A (human, UniProt P20138 18-364)
human CD33 F216A = human CD33 F216A (human, UniProt P20138 18-364)
Chain of human CD33 F216A (P20138 18-364 F216A limits assumed): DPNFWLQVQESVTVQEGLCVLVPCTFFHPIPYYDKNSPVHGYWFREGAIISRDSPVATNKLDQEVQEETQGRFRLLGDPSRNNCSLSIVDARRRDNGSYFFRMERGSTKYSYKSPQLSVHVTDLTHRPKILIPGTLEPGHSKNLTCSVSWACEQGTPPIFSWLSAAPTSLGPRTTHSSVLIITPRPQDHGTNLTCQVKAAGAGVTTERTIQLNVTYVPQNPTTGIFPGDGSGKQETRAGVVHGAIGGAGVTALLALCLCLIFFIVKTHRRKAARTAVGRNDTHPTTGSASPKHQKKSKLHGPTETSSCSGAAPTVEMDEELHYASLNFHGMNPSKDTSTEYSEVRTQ

human CD33 L229A = human CD33 L229A (human, UniProt P20138 18-364)
Chain of human CD33 L229A (P20138 18-364 L229A limits assumed): as the sequence (P20138 18-364 F216A limits assumed) above, with A199F, L212A counted along it

human CD33 T185A = human CD33 T185A (human, UniProt P20138 18-364)
Chain of human CD33 T185A (P20138 18-364 T185A limits assumed): as the sequence (P20138 18-364 F216A limits assumed) above, with T168A, A199F counted along it

human CD33 G241A = human CD33 G241A (human, UniProt P20138 18-364)
Chain of human CD33 G241A (P20138 18-364 G241A limits assumed): as the sequence (P20138 18-364 F216A limits assumed) above, with A199F, G224A counted along it

human CD33 K215A = human CD33 K215A (human, UniProt P20138 18-364)
Chain of human CD33 K215A (P20138 18-364 K215A limits assumed): as the sequence (P20138 18-364 F216A limits assumed) above, with K198A, A199F counted along it

human CD33 G188A = human CD33 G188A (human, UniProt P20138 18-364)
Chain of human CD33 G188A (P20138 18-364 G188A limits assumed): as the sequence (P20138 18-364 F216A limits assumed) above, with G171A, A199F counted along it

human CD33 V221A = human CD33 V221A (human, UniProt P20138 18-364)
human CD33 P189A = human CD33 P189A (human, UniProt P20138 18-364)
Chain of human CD33 P189A (P20138 18-364 P189A limits assumed): as the sequence (P20138 18-364 F216A limits assumed) above, with P172A, A199F counted along it

human CD33 V196A = human CD33 V196A (human, UniProt P20138 18-364)
Chain of human CD33 V196A (P20138 18-364 V196A limits assumed): as the sequence (P20138 18-364 F216A limits assumed) above, with V179A, A199F counted along it

human CD33 H206A = human CD33 H206A (human, UniProt P20138 18-364)
Chain of human CD33 H206A (P20138 18-364 H206A limits assumed): as the sequence (P20138 18-364 F216A limits assumed) above, with H189A, A199F counted along it

human CD33 I176A = human CD33 I176A (human, UniProt P20138 18-364)
Chain of human CD33 I176A (P20138 18-364 I176A limits assumed): as the sequence (P20138 18-364 F216A limits assumed) above, with I159A, A199F counted along it

human CD33 Q228A = human CD33 Q228A (human, UniProt P20138 18-364)
Chain of human CD33 Q228A (P20138 18-364 Q228A limits assumed): as the sequence (P20138 18-364 F216A limits assumed) above, with A199F, Q211A counted along it

human CD33 T223A = human CD33 T223A (human, UniProt P20138 18-364)
Chain of human CD33 T223A (P20138 18-364 T223A limits assumed): as the sequence (P20138 18-364 F216A limits assumed) above, with A199F, T206A counted along it

human CD33 G263A = human CD33 G263A (human, UniProt P20138 18-364)
human CD33 V282A = human CD33 V282A (human, UniProt P20138 18-364)
human CD33 P308A = human CD33 P308A (human, UniProt P20138 18-364)
human CD33 F243A = human CD33 F243A (human, UniProt P20138 18-364)
human CD33 A269S = human CD33 A269S (human, UniProt P20138 18-364)
human CD33 A265S = human CD33 A265S (human, UniProt P20138 18-364)
human CD33 L273A = human CD33 L273A (human, UniProt P20138 18-364)
human CD33 R287A = human CD33 R287A (human, UniProt P20138 18-364)
human CD33 D298A = human CD33 D298A (human, UniProt P20138 18-364)
human CD33 H285A = human CD33 H285A (human, UniProt P20138 18-364)
human CD33 L316A = human CD33 L316A (human, UniProt P20138 18-364)
human CD33 K315A = human CD33 K315A (human, UniProt P20138 18-364)
human CD33 G304A = human CD33 G304A (human, UniProt P20138 18-364)
human CD33 T292A = human CD33 T292A (human, UniProt P20138 18-364)
human CD33 D246A = human CD33 D246A (human, UniProt P20138 18-364)
human CD33 V257A = human CD33 V257A (human, UniProt P20138 18-364)
human CD33 A255S = human CD33 A255S (human, UniProt P20138 18-364)
human CD33 S305A = human CD33 S305A (human, UniProt P20138 18-364)
human CD33 I262A = human CD33 I262A (human, UniProt P20138 18-364)
human CD33 R291A = human CD33 R291A (human, UniProt P20138 18-364)

Chain of human CD33 L180A (P20138 18-364 L180A limits assumed): as the sequence (P20138 18-364 F216A limits assumed) above, with L163A, A199F counted along it
Chain of human CD33 S181A (P20138 18-364 S181A limits assumed): as the sequence (P20138 18-364 F216A limits assumed) above, with S164A, A199F counted along it

Row | Binder | Mean % WT Binding (human CD33 L180A) | Mean % WT Binding (human CD33 S181A) | Mean % WT Binding (human CD33 T239A) | Mean % WT Binding (human CD33 F216A) | Mean % WT Binding (human CD33 L229A) | Mean % WT Binding (human CD33 T185A) | Mean % WT Binding (human CD33 G241A) | Mean % WT Binding (human CD33 K215A) | Mean % WT Binding (human CD33 G188A) | Mean % WT Binding (human CD33 V221A) | Mean % WT Binding (human CD33 P189A) | Mean % WT Binding (human CD33 V196A) | Mean % WT Binding (human CD33 H206A) | Mean % WT Binding (human CD33 I176A) | Mean % WT Binding (human CD33 Q228A) | Mean % WT Binding (human CD33 T223A) | other results
1 | Refmab #2 (antibody, V domains shown, In the alanine scan antibodies were used as IgG or Fab) VH: QVQLVQSGAEVKKPGSSVKVSCKASGGTFSDYAISWVRQAPGQGLEWMGRIIPILGVADYAQKFQGRVTITADKSTRTAYMELSSLRSEDTAVYYCARNWADAFDIWGQGTMVTVSS VL: DIQLTQSPSSLSASVGDRVTITCRASQGISSVLAWYQQKPGKAPKLLIYDASSLESGVPSRFSGSGSGTDFTLTISSLQPEDFATYYCQQFDSSITFGQGTKLEIK | 118% | 116% | 111% | 101% | 113% | 118% | 111% | 98.4% | 130% | 92.3% | 116% | 106% | 110% | 124% | 120% | 126% | 
2 | Refmab #3 (antibody, V domains shown, In the alanine scan antibodies were used as IgG or Fab) VH: QVQLVQSGAEVKKPGSSVKVSCKASGYTFTDYNMHWVRQAPGQGLEWIGYIYPYNGGTGYNQKFKSKATITADESTNTAYMELSSLRSEDTAVYYCARGRPAMDYWGQGTLVTVSS VL: DIQMTQSPSSLSASVGDRVTITCRASESVDNYGISFMNWFQQKPGKAPKLLIYAASNQGSGVPSRFSGSGSGTDFTLTISSLQPDDFATYYCQQSKEVPWTFGQGTKVEIK | 102% | 128% | 105% | 152% | 150% | 105% | 128% | 79.8% | 85.1% | 89% | 95.5% | 105% | 97.3% | 100% | 157% | 93.5% | 
3 | Refmab #1 (antibody, V domains shown, In the alanine scan antibodies were used as IgG or Fab; also called hP67.6) VH: EVQLVQSGAEVKKPGSSVKVSCKASGYTITDSNIHWVRQAPGQSLEWIGYIYPYNGGTDYNQKFKNRATLTVDNPTNTAYMELSSLRSEDTAFYYCVNGNPWLAYWGQGTLVTVSS VL: DIQLTQSPSTLSASVGDRVTITCRASESLDNYGIRFLTWFQQKPGKAPKLLMYAASNQGSGVPSRFSGSGSGTEFTLTISSLQPDDFATYYCQQTKEVPWSFGQGTKVEVK | 91.3% | 85.5% | 79.7% | 87.3% | 93.1% | 92.3% | 102% | 84.5% | 102% | 91.9% | 89.2% | 83.9% | 98.8% | 93.5% | 99.4% | 103% | 
4 | Refmab #1 (antibody, V domains shown, The alanine scan used IgG or Fab; also called hP67.6) VH: EVQLVQSGAEVKKPGSSVKVSCKASGYTITDSNIHWVRQAPGQSLEWIGYIYPYNGGTDYNQKFKNRATLTVDNPTNTAYMELSSLRSEDTAFYYCVNGNPWLAYWGQGTLVTVSS VL: DIQLTQSPSTLSASVGDRVTITCRASESLDNYGIRFLTWFQQKPGKAPKLLMYAASNQGSGVPSRFSGSGSGTEFTLTISSLQPDDFATYYCQQTKEVPWSFGQGTKVEVK |  |  |  |  |  |  |  |  |  |  |  |  |  |  |  |  | Mean % WT Binding (human CD33 G263A): 98.9 % WT binding; Mean % WT Binding (human CD33 V282A): 109 % WT binding; Mean % WT Binding (human CD33 P308A): 94.3 % WT binding; Mean % WT Binding (human CD33 F243A): 86.5 % WT binding; Mean % WT Binding (human CD33 A269S): 107 % WT binding; Mean % WT Binding (human CD33 A265S): 93.2 % WT binding; Mean % WT Binding (human CD33 L273A): 110 % WT binding; Mean % WT Binding (human CD33 R287A): 94.7 % WT binding; Mean % WT Binding (human CD33 D298A): 97.8 % WT binding; Mean % WT Binding (human CD33 H285A): 100 % WT binding; Mean % WT Binding (human CD33 L316A): 84.6 % WT binding; Mean % WT Binding (human CD33 K315A): 80.6 % WT binding; Mean % WT Binding (human CD33 G304A): 104 % WT binding; Mean % WT Binding (human CD33 T292A): 89.5 % WT binding; Mean % WT Binding (human CD33 D246A): 85.2 % WT binding; Mean % WT Binding (human CD33 V257A): 102 % WT binding; Mean % WT Binding (human CD33 A255S): 98.8 % WT binding; Mean % WT Binding (human CD33 S305A): 86.4 % WT binding; Mean % WT Binding (human CD33 I262A): 89.7 % WT binding; Mean % WT Binding (human CD33 R291A): 97.8 % WT binding
5 | Refmab #4 (antibody, V domains shown, In the alanine scan antibodies were used as IgG or Fab) VH: QVQLVQSGAEVKKPGESVKVSCKASGYTFTNYGMNWVKQAPGQGLEWMGWINTYTGEPTYADKFQGRVTMTTDTSTSTAYMEIRNLGGDDTAVYYCARWSWSDGYYVYFDYWGQGTSVTVSS VL: DIVMTQSPDSLTVSLGERTTINCKSSQSVLDSSTNKNSLAWYQQKPGQPPKLLLSWASTRESGIPDRFSGSGSGTDFTLTIDSPQPEDSATYYCQQSAHFPITFGQGTRLEIK | 101% | 114% | 102% | 71.6% | 89.1% | 98.9% | 109% | 96.7% | 91.3% | 104% | 98.2% | 102% | 97.7% | 124% | 112% | 106% | 
